Data taken from patent US20260242478A1 (published 2026).
Where no end group is shown, it is not given here.

B1: Phage-3363 (Peptide-180 library peptide) (peptide)
peptide: EDVLCKPLWMCFGF
notes: tested as crude clonal phage supernatant
B2: Phage-3359 (Peptide-180 library peptide) (peptide)
peptide: VESWCIPAWMCTGF
notes: as for B1
B3: Phage-3362 (Peptide-180 library peptide) (peptide)
peptide: HDLSCVPRWMCDGF
notes: as for B1
B4: Phage-3356 (Peptide-180 library peptide) (peptide)
peptide: LSWHCIPEWMCAGF
modifications: cysteine pairing not given here; also: fused to pIII of bacteriophage
notes: as for B1
B5: Phage-3358 (Peptide-180 library peptide) (peptide)
peptide: VIIKCEPRWMCEGF
notes: as for B1
B6: Phage-3360 (Peptide-180 library peptide) (peptide)
peptide: FPVRCVPEWMCSGF
notes: as for B1
B7: Phage-3357 (Peptide-180 library peptide) (peptide)
peptide: DTIQCKPAWMCVGF
notes: as for B1
B8: Phage-3361 (Peptide-180 library peptide) (peptide)
peptide: WMPYCVPHWMCDGF
notes: as for B1

Legend:
PSMA Fab [1] = biological target: T1, PSMA Fab (biotinylated (site not stated)); experiment: clonal phage ELISA on captured PSMA Fab pre-incubated with PSMA antigen as competitor, anti-M13-HRP detection;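 further: wells blocked with buffer plus PSMA antigen before phage addition, with blocking buffer alone as the no-competitor control, bound phage detected after washing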
T1 construct: Biotinylated PSMA Fab captured on neutravidin coated plates in the phage ELISA; also called anti-PSMA Fab; 006 PSMA Fab

PSMA Fab [2] = biological target: T1, PSMA Fab; experiment: clonal phage ELISA on biotinylated PSMA Fab captured on neutravidin plates, anti-M13-HRP detection;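 further: crude clonal phage supernatants added to wells preincubated with PSMA antigen or with blocking buffer only (no wash between), briefly incubated, then washed before detecting bound phage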
Protocol: (§1) Clonal phage were harvested as crude supernatants and screened via standard ELISAs. […] Prior to the addition of clonal phage. wells were incubated with blocking buffer and PSMA antigen or blocking buffer alone. Without washing or aspirating, clonal phage supernatants were then added to the wells and incubated for a short time. Wells were then washed followed by detection of bound phage using a horse radish conjugated anti-M13 antibody.

PSMA Fab (006 PSMA Fab) [3] = biological target: T2, PSMA Fab (006 PSMA Fab); experiment: phage ELISA: clonal phage supernatant on biotinylated PSMA Fab captured on neutravidin plate, blocking buffer alone; anti-M13 HRP detection;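 further: crude clonal phage supernatants added to wells preincubated with blocking buffer, incubated briefly, bound phage detected with a horseradish-conjugated anti-M13 antibody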
T2 construct: also called Anti-PSMA Fab
Protocol: as §1

PSMA Fab (006 PSMA Fab) [4] = biological target: T2, PSMA Fab (006 PSMA Fab); experiment: phage ELISA: clonal phage supernatant on biotinylated PSMA Fab captured on neutravidin plate, wells pre-incubated with PSMA antigen as competitor; anti-M13 HRP detection
Protocol: as §1

PSMA Fab (006 PSMA Fab) [5] = biological target: T3, PSMA Fab (006 PSMA Fab) (biotinylated (site not stated)); experiment: clonal phage ELISA on biotinylated PSMA Fab captured on neutravidin, anti-M13 HRP detection, no PSMA
T3 construct: In the clonal phage ELISA the biotinylated PSMA Fab was captured on neutravidin coated plates; also called Anti-PSMA Fab

PSMA Fab (006 PSMA Fab) [6] = biological target: T3, PSMA Fab (006 PSMA Fab); experiment: clonal phage ELISA on captured PSMA Fab pre-incubated with PSMA antigen as competitor;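 further: crude clonal phage supernatants added to wells without washing away the PSMA competitor, bound phage detected by HRP-conjugated anti-M13 antibody, reference wells received blocking buffer only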
Protocol: as §1

Binder | Phage binding ELISA signal, Anti-PSMA Fab with PSMA antigen (PSMA Fab [1]) | Phage binding ELISA signal, Anti-PSMA Fab (PSMA Fab [2]) | Phage binding ELISA signal, Anti-PSMA Fab (PSMA Fab (006 PSMA Fab) [5]) | Phage binding ELISA signal, Anti-PSMA Fab with PSMA antigen (PSMA Fab (006 PSMA Fab) [6]) | other results
VEPLCRPFWMCVGF [Phage-3382] | 0.127 | 1.81 | – | – | –
B1 | – | – | – | – | phage binding ELISA signal (PSMA Fab (006 PSMA Fab) [3]): 1.82; phage binding ELISA signal (PSMA Fab (006 PSMA Fab) [4]): 0.0901
IAVMCKPEWMCVGF [Phage-3368] | – | – | 1.82 | 0.0964 | –
IGAMCEPKWMCFGF (cysteine pairing not given here; also: fused to pIII of bacteriophage) [Phage-3389] | 0.118 | 1.8 | – | – | –
IDKMCVPSWMCWGF [Phage-3374] | – | – | 1.81 | 0.0876 | –
NGALCKPVWMCQGF [Phage-3383] | 0.0702 | 1.81 | – | – | –
B2 | – | – | – | – | phage binding ELISA signal (PSMA Fab (006 PSMA Fab) [3]): 1.82; phage binding ELISA signal (PSMA Fab (006 PSMA Fab) [4]): 0.0794
LEVHCRPSWMCVGF [Phage-3384] | 0.062 | 1.81 | – | – | –
B3 | – | – | – | – | phage binding ELISA signal (PSMA Fab (006 PSMA Fab) [3]): 1.82; phage binding ELISA signal (PSMA Fab (006 PSMA Fab) [4]): 0.0671
B4 | – | – | – | – | phage binding ELISA signal (PSMA Fab (006 PSMA Fab) [3]): 1.82; phage binding ELISA signal (PSMA Fab (006 PSMA Fab) [4]): 0.07
DVRLCRPSWMCSGF [Phage-3378] | 0.0682 | 1.81 | – | – | –
QEIYCVPEWMCSWF [Phage-3375] | – | – | 1.81 | 0.0642 | –
B5 | – | – | – | – | phage binding ELISA signal (PSMA Fab (006 PSMA Fab) [3]): 1.82; phage binding ELISA signal (PSMA Fab (006 PSMA Fab) [4]): 0.068
B6 | – | – | – | – | phage binding ELISA signal (PSMA Fab (006 PSMA Fab) [3]): 1.82; phage binding ELISA signal (PSMA Fab (006 PSMA Fab) [4]): 0.0748
HDLRCVPEWMCYGL [Phage-3377] | – | – | 1.81 | 0.0734 | –
DFAMCRPAWMCGGF (cysteine pairing not given here; also: fused to pIII of bacteriophage) [Phage-3372] | – | – | 1.81 | 0.0683 | –
FEMLCRPIWMCTGF [Phage-3365] | – | – | 1.82 | 0.14 | –
FSVRCVPEWMCAGF (cysteine pairing not given here; also: fused to pIII of bacteriophage) [Phage-3387] | 0.0701 | 1.8 | – | – | –

Binder | Phage binding ELISA signal, Anti-PSMA Fab with PSMA antigen (PSMA Fab [1]) | Phage binding ELISA signal, Anti-PSMA Fab (PSMA Fab [2]) | Phage binding ELISA signal, Anti-PSMA Fab (PSMA Fab (006 PSMA Fab) [5]) | Phage binding ELISA signal, Anti-PSMA Fab with PSMA antigen (PSMA Fab (006 PSMA Fab) [6]) | other results
HTPICVPVWMCAGF (cysteine pairing not given here; also: fused to pIII of bacteriophage) [Phage-3369] | – | – | 1.82 | 0.0746 | –
QVPMCKPMWMCAGF (cysteine pairing not given here; also: fused to pIII of bacteriophage) [Phage-3379] | 0.0921 | 1.81 | – | – | –
GHPICVPSWMCEGF [Phage-3373] | – | – | 1.81 | 0.0862 | –
FTALCKPMWMCRGF [Phage-3386] | 0.0718 | 1.81 | – | – | –
QLPMCVPRWMCDGW [Phage-3366] | – | – | 1.82 | 0.129 | –
B7 | – | – | – | – | phage binding ELISA signal (PSMA Fab (006 PSMA Fab) [3]): 1.82; phage binding ELISA signal (PSMA Fab (006 PSMA Fab) [4]): 0.102
AEVRCVPQWMCFGL [Phage-3380] | 0.0952 | 1.81 | – | – | –
QGTLCVPSWMCSGF [Phage-3390] | 0.0523 | 1.8 | – | – | –
ILPQCVPSWMCEGF [Phage-3385] | 0.106 | 1.81 | – | – | –
EMRYCVPRWMCEGF [Phage-3381] | 0.095 | 1.81 | – | – | –
B8 | – | – | – | – | phage binding ELISA signal (PSMA Fab (006 PSMA Fab) [3]): 1.82; phage binding ELISA signal (PSMA Fab (006 PSMA Fab) [4]): 0.119
MQMMCKPDWMCEGF [Phage-3388] | 0.0755 | 1.8 | – | – | –
DHVMCKPKWMCEGF [Phage-3367] | – | – | 1.82 | 0.0947 | –
IEAVCKPSWMCAGF (cysteine pairing not given here; also: fused to pIII of bacteriophage) [Phage-3391] | 0.0703 | 1.8 | – | – | –
ESNFCVPAWMCTGF (cysteine pairing not given here; also: fused to pIII of bacteriophage) [Phage-3364] | – | – | 1.82 | 0.073 | –
LSIKCVPDWMCTGF [Phage-3370] | – | – | 1.81 | 0.09 | –
EYIRCVPSWMCLDL [Phage-3376] | – | – | 1.81 | 0.0615 | –
PHAICKPAWMCVGL [Phage-3371] | – | – | 1.81 | 0.0913 | –
